System: MS2 coat protein
Test: apparent KD of MS2 coat protein; designed switch direction (-1 OFF switch, 1 ON switch): -1; higher = weaker reporter binding
How it was run: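 The apparent KD reported per design is the median over clusters of curve fits to normalised cluster fluorescence. The RNA switches were transcribed on Illumina chips by stalled E. coli RNA polymerase. SNAP-549-labelled MS2 coat protein was titrated from 0.7 or 1.5 nM, doubling up to 3 µM, in Tris-HCl pH 7.5 buffer containing KCl, MgCl2, BSA, DTT, tRNA and Tween-20, with no input, 200 uM small-molecule ligand, or an oligonucleotide input.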

[1] = input ligand: microRNA oligo, concentration not stated
[2] = Eterna round: R95, input ligand: microRNA oligo, concentration not stated
[3] = Eterna round: R95, input ligand: FMN 200 uM
[4] = Eterna round: R95, input ligand: none

CGCUGGGCAGGAUAUGUUCUUGAGCACUUGAGGAUCACCCAAGUCAUCAAGAACUCAGGCACAGAAGGGUUUAUGG [salish99_ex5_r4_017] (Eterna round: R97, puzzle: Exclusion 5)
apparent KD of MS2 coat protein (input ligand: FMN 200 uM): 0.0105 µM | apparent KD of MS2 coat protein (input ligand: none): 0.0134 µM

GAUAGAGAGCAGGAUAUCAUAGAAAUGUAUGAAUGAGAAGGGCUCACAUGAGGAUCACCCAUGUGGUCCUAGAU [JL Dibiri mod 19] (Eterna round: R96, puzzle: Exclusion 6)
apparent KD of MS2 coat protein [1]: 0.0234 µM

AAUAACAGAGGAUAUACUGUUUUAUGUGUUUGUUAUUUUGAACAUGAGGAUCACCCAUGUAGAAGGCUGAAUGA [JMF 64] (puzzle: Exclusion 2)
apparent KD of MS2 coat protein [2]: 0.0271 µM

CGUGUCUUUCACGUGAGUGGUGGGUGCAACAGGUGGGAAACAUGAGGAUCACCCAUGUCCUCACUUGCUCGUCUUUU [Grok-var2-03] (puzzle: Sensor v3, turn-off variant 2)
apparent KD of MS2 coat protein [3]: 0.0271 µM | apparent KD of MS2 coat protein [2]: 0.109 µM | apparent KD of MS2 coat protein [4]: 0.0261 µM

UCAACGCAAGGAUAUACUUGCGGUGAUGUUCGAAUUCUUCUACUUGAGGAUCACCCAAGUAGAAGGUGCGGUGA [jl-ex2.4.64 ViennaUCT mod] (Eterna round: R97, puzzle: Exclusion 2)
apparent KD of MS2 coat protein (input ligand: FMN 200 uM): 0.014 µM | apparent KD of MS2 coat protein (input ligand: none): 0.0131 µM

UUAAAACAUGUAGGAUAUGCGUAGAAAAGCUAUGCAGAAGGACAUGAGGAUCACCCAUGUUCAACCAUCAACGUACAGAUGGAA (Eterna round: R96, puzzle: Exclusion NG 1)
apparent KD of MS2 coat protein (input ligand: FMN 200 uM): 0.0317 µM | apparent KD of MS2 coat protein [1]: 0.0121 µM | apparent KD of MS2 coat protein (input ligand: none): 0.0141 µM

UUUUAACAUGAGGAUCACCCAUGUGAGGAUAUCGAAAUUUAUAUUUAUAUUUAUUAAACGAGAAGGCACAUUUU [JMF 99] (puzzle: Exclusion 1)
apparent KD of MS2 coat protein [2]: 0.0669 µM

ACGCGUGAAGGAUAUACGCGGGCCCAAGCGGAUCACACCGCACAUGAGGAUCACCCAUGUAGAAGGUCGCAAAA [r4x2dt3] (Eterna round: R97, puzzle: Exclusion 2)
apparent KD of MS2 coat protein (input ligand: FMN 200 uM): 0.0334 µM | apparent KD of MS2 coat protein (input ligand: none): 0.0139 µM

ACAAGCUUUUUGUUCGUCUUAUACACUCCUAAGAGGACAACAUGAGGAUCACCCAUGUAACAAAGACGGACUCAUGU [Sesor Array 11 - Jieux - Sensor v3, turn-off variant 2] (puzzle: Sensor v3, turn-off variant 2)
apparent KD of MS2 coat protein [3]: 0.0177 µM | apparent KD of MS2 coat protein [2]: 0.129 µM | apparent KD of MS2 coat protein [4]: 0.012 µM

ACAUGAGGAUCACCCAUGUGACCACAAUGGCUGAUGUAACAACAGGAUAUGCGUGAAUAUCUAACGCAGAAGGGUUUUGACUGG [Deportation 59 - Jieux - Exclusion NG 3] (Eterna round: R96, puzzle: Exclusion NG 3)
apparent KD of MS2 coat protein (input ligand: FMN 200 uM): 0.0845 µM | apparent KD of MS2 coat protein [1]: 0.0715 µM | apparent KD of MS2 coat protein (input ligand: none): 0.0911 µM

ACAAAGGAUACAGGAUAUCGCGUACAAGUGCAGCGAGAAGGGUAUUCUAUGCGCUAUCCGACAUGAGGAUCACCCAUGUGGUCC [Eternabot solution 47] (Eterna round: R96, puzzle: Exclusion NG 1)
apparent KD of MS2 coat protein (input ligand: FMN 200 uM): 0.417 µM | apparent KD of MS2 coat protein [1]: 0.851 µM | apparent KD of MS2 coat protein (input ligand: none): 0.366 µM

UUUAAGGAAGGAUAUACAAUAUAAAUAAUAUCCUCAUUAUUACAUGAGGAUCACCCAUGUAGAAGGUCCAAUUU [Mat - Exclusion 2 - Mod of Hog - D89] (puzzle: Exclusion 2)
apparent KD of MS2 coat protein [2]: 0.137 µM

UAUUAUCAAGCAAGAUCCUACAUGAGGAUCACCCAUGUGCUCGUCUUAUAAGGUACUGUGACGAAAGUCACGGUACC [Sensor 3, v1 - 73] (puzzle: Sensor v3, turn-off variant 1)
apparent KD of MS2 coat protein [3]: 0.107 µM | apparent KD of MS2 coat protein [2]: 0.107 µM | apparent KD of MS2 coat protein [4]: 0.153 µM

GCCAGAGCAGGAUAUUCAAAACCUCACAUGAGGAUCACCCAUGUGGCCGAAAGGCCGGGAGGAGAAGGGCUCUGGC [Fiskers Ex 5 - 1] (puzzle: Exclusion 5)
apparent KD of MS2 coat protein [3]: 0.0498 µM | apparent KD of MS2 coat protein [2]: 0.0133 µM | apparent KD of MS2 coat protein [4]: 0.0158 µM

AAAUAACCUCUAGGAUAUGUGUACGUAUAGUGCGCAGAAGGAGACAUGAGGAUCACCCAUGUACACACACAACAAACGACCACC (Eterna round: R96, puzzle: Exclusion NG 1)
apparent KD of MS2 coat protein (input ligand: FMN 200 uM): 0.0261 µM | apparent KD of MS2 coat protein [1]: 0.0273 µM | apparent KD of MS2 coat protein (input ligand: none): 0.0304 µM

UAUGGUUAAGUCAGGAUAUGCACGAAGAGAACAAAGCAGAAGGGACAUGAGGAUCACCCAUGUAAAGUCGUGUU [Ex4 #76] (Eterna round: R97, puzzle: Brourd's mod of Exclusion 4)
apparent KD of MS2 coat protein (input ligand: FMN 200 uM): 0.0284 µM | apparent KD of MS2 coat protein (input ligand: none): 0.032 µM

CCGAGGUGGCGGUCCUAUGACAUGAGGAUCACCCAUGUACCUCGCCACAAGCUCUUUGCUCAUCUUAUAGUUCUCGG [Onlaor] (puzzle: Sensor v3, turn-off variant 1)
apparent KD of MS2 coat protein [3]: 0.0186 µM | apparent KD of MS2 coat protein [2]: 0.124 µM | apparent KD of MS2 coat protein [4]: 0.0179 µM

ACAAGCUUUUAGAUUUUCAACAUGAGGAUCACCCAUGUUCGUCUUGUGCUAGUGCGAGUGCGGUGUACUCGUAUUAG [JL TOV1 3.82 sellena mod] (Eterna round: R97, puzzle: Sensor, turn-off variant 1)
apparent KD of MS2 coat protein (input ligand: FMN 200 uM): 0.0185 µM | apparent KD of MS2 coat protein (input ligand: none): 0.0184 µM

CUGAGCAGACGGAGAUCCCACAUGAGGAUCACCCAUGUCUCAAAAGCUUUUUGCUUGUCUUAUUCUCCUCUGUUCUC [Arorza] (Eterna round: R96, puzzle: Sensor v3, turn-off variant 1)
apparent KD of MS2 coat protein (input ligand: FMN 200 uM): 0.0137 µM | apparent KD of MS2 coat protein [1]: 0.0722 µM | apparent KD of MS2 coat protein (input ligand: none): 0.0158 µM

CUAACAUGCUGGUGAUCAUACAUGAGGAUCACCCAUGUAACAAGCUUUUUGCUCGUCUUAAUUUAAUUGAUUACUAG [Stov1/8-A3] (Eterna round: R97, puzzle: Sensor, turn-off variant 1)
apparent KD of MS2 coat protein (input ligand: FMN 200 uM): 0.0889 µM | apparent KD of MS2 coat protein (input ligand: none): 0.113 µM

UUGGAGAUAGGAUAUACGAGGAGAGUAGAGGGAAGGUGAUGACAUGAGGAUCACCCAUGUAGAAGGAUCAGGAG [JR_Exclu2_Sub068] (puzzle: Exclusion 2)
apparent KD of MS2 coat protein [2]: 0.112 µM

GCCGAUUAAGUGAGGAUAUACCUAUGGAUACAUAGGUAGAAGGUACAUGAGGAUCACCCAUGUUCCUCAUCGGC [Fiskers BMX 4 - 10] (puzzle: Brourd's mod of Exclusion 4)
apparent KD of MS2 coat protein [2]: 0.00997 µM

GUACACGGCUAGGAUAUCAUUCCUUGCGACCCUUGAGAAGGAGCCACAUGAGGAUCACCCAUGUCAUAUGCAGA [Eternabot (Original) Solution 38] (Eterna round: R97, puzzle: Exclusion 6)
apparent KD of MS2 coat protein (input ligand: FMN 200 uM): 0.0375 µM | apparent KD of MS2 coat protein (input ligand: none): 0.0332 µM

ACAUGUCUUGUAGGAUAUAGUUGACAUGAGGAUCACCCAUGUUGAUUCAUGUCUAUGGAAACGGACUAGAAGGACGAGAAUAUG [Ex NG2 #17] (Eterna round: R96, puzzle: Exclusion NG 2)
apparent KD of MS2 coat protein (input ligand: FMN 200 uM): 0.0505 µM | apparent KD of MS2 coat protein [1]: 0.0253 µM | apparent KD of MS2 coat protein (input ligand: none): 0.0259 µM

AGCUGUGGCCGAGGAUAUACACAUGAGGAUCACCCAUGUAGGUGCGGAUACUCGCACCAAUAAGUGUAGAAGGCGGUCUCAGCA [Eli eng2 - 057] (Eterna round: R96, puzzle: Exclusion NG 2)
apparent KD of MS2 coat protein (input ligand: FMN 200 uM): 0.0146 µM | apparent KD of MS2 coat protein [1]: 0.0132 µM | apparent KD of MS2 coat protein (input ligand: none): 0.0192 µM

AAGUACCGGUGAGGAUAUUUUUAAUAGAGCUUUAUGAUAUACAUGAGGAUCACCCAUGUUACGUUAAAGAAGGCAUCGGAUUAA [Mat - Exclusion NG 2 - Mod of JL - D97] (Eterna round: R96, puzzle: Exclusion NG 2)
apparent KD of MS2 coat protein (input ligand: FMN 200 uM): 0.0161 µM | apparent KD of MS2 coat protein [1]: 0.0137 µM | apparent KD of MS2 coat protein (input ligand: none): 0.0193 µM

UGCAGACGAGGAUAUAGAUUUAGAUACAUGAGGAUCACCCAUGUAUAGAUGUAUUUAGAUUUAGAAGGCGUCUGCU [E5/13-A4] (Eterna round: R97, puzzle: Exclusion 5)
apparent KD of MS2 coat protein (input ligand: FMN 200 uM): 0.156 µM | apparent KD of MS2 coat protein (input ligand: none): 0.176 µM

GACUGCCGAGGAUAUACAUGAGGAUCACCCAUGUGCUUCAGCAUUUUUUGAUGCAUGGGUAGAAGGCGGUAGUU [LRO-Excl3-15] (puzzle: Exclusion 3)
apparent KD of MS2 coat protein [2]: 0.341 µM

CCUCCACAUGAGGAUCACCCAUGUCAGGAUAUCGUGUGCGCGUUUUCGGUCUUUCGUGCGAGAAGGGACGUCUG (puzzle: Exclusion 1)
apparent KD of MS2 coat protein [2]: 0.0326 µM

CUUUUGUGAGGAUAUCAGUAGUAAAUAAAUAAUAUUACUACUGAGAAGGCACAUGAGGAUCACCCAUGUUCCUC [salish99_ex3_r3_083] (Eterna round: R96, puzzle: Exclusion 4)
apparent KD of MS2 coat protein (input ligand: FMN 200 uM): 0.385 µM | apparent KD of MS2 coat protein [1]: 0.039 µM | apparent KD of MS2 coat protein (input ligand: none): 0.0453 µM

AUUGUUUAUGUAGGAUAUGCCUGGCGUGCCUUCGCAGAAGGACAUGAGGAUCACCCAUGUAUUGCGGUCUGCGUUCAGAUCGCG [salish99_ExNG1_r4_026] (Eterna round: R96, puzzle: Exclusion NG 1)
apparent KD of MS2 coat protein (input ligand: FMN 200 uM): 0.0653 µM | apparent KD of MS2 coat protein [1]: 0.0343 µM | apparent KD of MS2 coat protein (input ligand: none): 0.0475 µM

CUGCCAACGAAGCUUGUCGACAUGAGGAUCACCCAUGUUUCGCAAAGUGUUACAAAAAAAUAUCUGUAUGAAAAUGU [JR_Sensorv2_yov_Sub1319] (Eterna round: R96, puzzle: Sensor v2, turn-off variant)
apparent KD of MS2 coat protein (input ligand: FMN 200 uM): 0.0118 µM | apparent KD of MS2 coat protein [1]: 0.0102 µM | apparent KD of MS2 coat protein (input ligand: none): 0.0159 µM

UUGGAUAUCUAUGGGAGUAACAUGAGGAUCACCCAUGUAUGUCUUGUUUUUUGUUCGUCAUAGGCCAUUUGAUUGGA [JR_SV3TOV1_Sub025] (puzzle: Sensor v3, turn-off variant 1)
apparent KD of MS2 coat protein [3]: 0.0788 µM | apparent KD of MS2 coat protein [2]: 0.14 µM | apparent KD of MS2 coat protein [4]: 0.0946 µM

AACUUCUGAGGAUAUACAUAGAUUUACAUGAGGAUCACCCAUGUUCCUCUAUGUAUAAAUGUAGAAGGCAGAAGAA [JL-ex5-4.37 Malcolm mod] (Eterna round: R97, puzzle: Exclusion 5)
apparent KD of MS2 coat protein (input ligand: FMN 200 uM): 0.0886 µM | apparent KD of MS2 coat protein (input ligand: none): 0.0183 µM
